Source: publication PMC4121237, “Engineering Neprilysin Activity and Specificity to Create a Novel Therapeutic for Alzheimer’s Disease” (PLoS ONE, 2014)

Tests used:
[1] = test system: Endothelin-1; test: Steady-state kinetics of endothelin-1 cleavage, stopped assay with RP-HPLC; assay type: biochemical
Procedure: Kinetic parameters for cleavage of endothelin-1 by NEP were determined using a stopped assay in which the amount of substrate cleaved was measured using reversed-phase HPLC (RP-HPLC). Endothelin-1 was incubated at 12.5–200 µM in the presence of wild type NEP or NEPv and reactions were stopped after 10 min at 37°C by the addition of an equal volume of 1∶1∶1 water:acetonitrile:TFA containing 2 mM tris(2-carboxyethyl)phosphine (Thermo Scientific). RP-HPLC spectra were recorded using an Agilent 1260 Infinity system. Injections of 20 µL were made for each sample and analytes were separated by elution on an Agilent Polaris C8-A stationary phase column (4.6×100 mm, 3 µm) at 1.5 mL min^−1 using a linear binary gradient of 10–90% acetonitrile in water with 0.1% (v/v) TFA over 15 minutes at 40°C. Signal intensity for intact endothelin-1 was monitored at 210 nm and relative peak area was determined by manual integration of the baseline. Kinetic parameters were derived from the activity data as described above.

[2] = test system: panel of off-target peptides; test: Steady-state kinetics across the panel of off-target peptides; assay type: biochemical
Procedure: For detailed kinetic characterisation of peptide cleavage by NEP, a similar assay to that above was used with modifications based on a published method. Peptides were synthesised by Bachem using 9-fluorenylmethyloxycarbonyl solid-phase peptide synthesis and were labelled with a N-terminal 5(6)FAM via a ε-aminocaproic acid linker and a C-terminal biotin via a lysine linker (Table S1). Purified peptides were supplied as trifluoroacetate salts with a purity ≥95%. The assay was performed in a 96-well microtitre plate and contained 50 mM HEPES (pH 7.4), 100 mM NaCl, 0.05% (w/v) BSA (Buffer A), 1–200 µM peptide substrate and 1–500 nM NEP protein. […] The fluorescence polarisation of the resulting solution was measured on a Victor plate reader and the amount of substrate cleaved was determined with reference to substrate-only controls with and without avidin. […]
Kinetic parameters for cleavage of endothelin-1 by NEP were determined using a stopped assay in which the amount of substrate cleaved was measured using reversed-phase HPLC (RP-HPLC). […] RP-HPLC spectra were recorded using an Agilent 1260 Infinity system. […] Signal intensity for intact endothelin-1 was monitored at 210 nm and relative peak area was determined by manual integration of the baseline. […]
Kinetic parameters for cleavage of a panel of peptides by wild-type NEP and NEPv were determined (Figure 3 and Table 2). […]

[3] = substrate Endothelin-1 (unlabelled), RP-HPLC, 10 min at 37°C

B1: NEPv: lead variant at round 2, human NEP ectodomain with the two mutations G399V and G714K (protein, UniProt P08473 52-750, looked up, variant G399V G714K)
extracellular domain: YDDGICKSSDCIKSAARLIQNMDATTEPCTDFFKYACGGWLKRNVIPETSSRYGNFDILRDELEVVLKDVLQEPKTEDIVAVQKAKALYRSCINESAIDSRGGEPLLKLLPDIYGWPVATENWEQKYGASWTAEKAIAQLNSKYGKKVLINLFVGTDDKNSVNHVIHIDQPRLGLPSRDYYECTGIYKEACTAYVDFMISVARLIRQEERLPIDENQLALEMNKVMELEKEIANATAKPEDRNDPMLLYNKMTLAQIQNNFSLEINGKPFSWLNFTNEIMSTVNISITNEEDVVVYAPEYLTKLKPILTKYSARDLQNLMSWRFIMDLVSSLSRTYKESRNAFRKALYVTTSETATWRRCANYVNGNMENAVGRLYVEAAFAGESKHVVEDLIAQIREVFIQTLDDLTWMDAETKKRAEEKALAIKERIGYPDDIVSNDNKLNNEYLELNYKEDEYFENIIQNLKFSQSKQLKKLREKVDKDEWISGAAVVNAFYSSGRNQIVFPAGILQPPFFSAQQSNSLNYGGIGMVIGHEITHGFDDNGRNFNKDGDLVDWWTQQSASNFKEQSQCMVYQYGNFSWDLAGGQHLNGINTLGENIADNGGLGQAYRAYQNYIKKNGEEKLLPGLDLNHKQLFFLNFAQVWCGTYRPEYAVNSIKTDVHSPKNFRIIGTLQNSAEFSEAFHCRKNSYMNPEKKCRVW
modifications: extracellular domain
B1 was tested, and the Km [1, 3] was 57 ± 20 µM, the kcat [1, 3] was 0.059 ± 0.008 s⁻¹ and the “Fold change in kcat/KM” value ([1]; substrate Endothelin-1, ratio of wild-type NEP kcat/KM to that of the mutant) was 13. The “reduction in activity on other peptides” value ([2]; other (off-target) peptides, relative to wild-type) was ≤ 3,200 fold and the “average specificity switch (ratio of the fold change in kcat/KM on Aβ1–40 to that on other peptides)” value ([2]; panel of 16 peptides) was 5,300 fold.
